Laboratory results published in article PMC8927860, “Completing the family of human Eps15 homology domains: Solution structure of the internal Eps15 homology domain of γ‐synergin” (Protein Science : A Publication of the Protein Society, 2022).
“Also recorded” adds a separate entry of the source. One block for each molecule: values may come before it. Ends that are not written are not given here.

Assays:
[1] = target: T1, EH domain of γ‐synergin (EHγ, residues 279–388) (Homo sapiens, UniProt Q9UMZ2); test: Isothermal titration calorimetry of SCAMP1 fragments and peptides with EHγ; type: binding; conditions: ITC; for ∆H / ∆S / N (stoichiometry) / KD: 20 mM Tris, 100 mM NaCl, 2 mM CaCl2 pH 7.5, 20°C, one site binding model; for ∆H / ∆S / KD: n.b. = no binding; for N (stoichiometry) / KD: VP-ITC, 50–200 μM EHγ in cell, ligand 700–2000 μM
T1 construct: His-tag with TEV cleavage site (N, cleaved yes); made in house; host or cells: Escherichia coli BL21(DE3)
T1 sequence (Q9UMZ2 279-388): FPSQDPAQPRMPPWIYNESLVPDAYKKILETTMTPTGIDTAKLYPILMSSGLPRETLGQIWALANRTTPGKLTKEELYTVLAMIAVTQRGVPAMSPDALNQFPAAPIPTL
Method: ITC measurements were performed on a VP‐ITC instruments (GE Healthcare, Chalfont St. Giles, UK). The calorimetric cell (with a total cell volume of 1,400 μl) contained 50–200 μM EHγ in 20 mM Tris, 100 mM NaCl, 2 mM CaCl2 pH 7.5. SCAMP1 fragments and peptides A, B, C at 700–2000 μM were titrated into the cell at 20°C. The heat generated after each ligand injection was obtained by integration of the calorimetric signal. Resulting binding isotherms were analyzed according to an one site binding model using the Origin software (OriginLab Corp., Northampton, MA, USA).

[2] = target: T1, EH domain of γ‐synergin (EHγ, residues 279–388); test: Analytical size exclusion chromatography of EHγ–SCAMP1″ complex; type: binding; conditions: complex compared with isolated EHγ and SCAMP1″; 100 μM EHγ and/or 100 μM SCAMP 1–52, Superdex 200 5/150 GL, 20 mM Tris pH 7.5, 100 mM NaCl, 2 mM CaCl2, 4°C
Method: The quality and oligomeric state of the EHγ construct was assessed on an analytical gel filtration column (Superdex 75 5/150 GL, GE Healthcare). To guarantee reproducible and reliable gel filtration runs, an ÄKTAmicro™ (GE Healthcare) was coupled to an auto sampler, which automatically injected with high‐precision 25 μl of protein sample.[36] Analytical gel filtration runs were performed in duplicates in the cold room at a flow rate of 0.2 ml/min in gel filtration buffer (20 mM Tris pH 7.5, 100 mM NaCl, 2 mM CaCl2). The used EHγ construct was injected spanning a concentration range of 10–1,000 μM. The column has been calibrated with protein standards ranging from 6.5 to 75 kDa. Interactions between EHγ and the SCAMP 1–52 fragment were also probed using this analytical gel filtration setup; the proteins alone or the potential complex (at concentrations of 100 μM EHγ and/or 100 μM SCAMP 1–52) were applied to a Superdex™ 200 5/150 GL analytical gel filtration column and analyzed. Analytical gel filtration runs were performed at 4°C at a flow rate of 0.2 ml/min in the gel filtration buffer.

[3] = target: T2, EH domain of human γ-synergin, longest construct (residues 279–388) (human, UniProt Q9UMZ2 279-388); test: ITC
T2 chain: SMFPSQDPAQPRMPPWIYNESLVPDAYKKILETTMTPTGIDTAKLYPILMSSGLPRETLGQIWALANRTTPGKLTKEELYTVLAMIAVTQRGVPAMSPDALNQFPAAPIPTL

[4] = target: T3, EH domain of human γ-synergin, longest construct (residues 279–388) (human, UniProt Q9UMZ2 279-388); test: NMR titration; unlabelled peptide added stepwise to 15N-labelled EHγ, 1H-15N HSQC, up to n = 2 (Pep A, C) and n = 3.2 (Pep B); 20 mM Tris pH 7.5, 100 mM NaCl, 2 mM CaCl2, 10% D2O, 298 K; joint fit of I324, L325, W339 to a one site binding model; conditions: both partners purified
T3 construct: two additional residues (Serine-Methionine) left at the N-terminus by the vector pNIC28-Bsa4 after TEV cleavage of the tag; γ-synergin, human, residues 279-388 (EH domain with N- and C-terminal structured extensions); also called EHγ; EHγ domain; source: E. coli BL21(DE3), purified (Ni-IMAC, TEV cleavage, SEC on Superdex 75); 15N-labelled in M9 medium for NMR; not shown: His tag, N-terminal, …
T3 sequence: T2 chain

[5] = target: T3, EH domain of human γ-synergin, longest …; test: ITC; EHγ 50–200 μM in the cell, SCAMP1 fragments and peptides A, B, C at 700–2000 μM titrated in; 20 mM Tris, 100 mM NaCl, 2 mM CaCl2 pH 7.5, 20°C; one site binding model; conditions: both partners purified

Molecule: GLDEYNPFSDSRT-NH2 [Peptide C]
∆H [1]: -22.9 ± 2.7 kcal/mol
∆S [1]: -59.8 cal/mol/deg
N (stoichiometry) [1]: 1.0 ± 0.1

Molecule: SDFDSNPFADPDLNY-NH2 [Peptide A]
∆H [1]: -21.1 ± 2.4 kcal/mol
∆S [1]: -55.2 cal/mol/deg
N (stoichiometry) [1]: 1.2 ± 0.1

Molecule: ADPDLNNPFKDPSVTY-NH2 [Peptide B]
∆H [1]: -12.0 ± 1.5 kcal/mol
∆S [1]: -23.3 cal/mol/deg
N (stoichiometry) [1]: 1.1 ± 0.2

B5: SCAMP1 (protein)
chain: MSDFDSNPFADPDLNNPFKDPSVTQVTRNVPPGLDEYNPFSDSRTPPPGGVKMPNVPNTQPAIMKPTEEHPAYTQIAKEHALAQAELLKRQEELERKAAELDRREREMQNLSQHGRKNNWPPLPSNFPVG
modifications: N-terminal cytosolic SCAMP1 construct, residues 1-130 (NPF repeats plus coiled coil, no TM helices); Ser-Met left at the N-terminus after TEV cleavage is omitted; human inferred from the hORFeome source
Kd [3]: 9 µM

B6: SCAMP1: N-terminal SCAMP1 construct devoid of transmembrane helices, comprising NPF repeat rich motifs and coiled coil (residues 1–130) (protein, UniProt O15126 1-130, looked up, fragment)
chain: B5 chain
∆H [1]: -7.5 ± 1.1 kcal/mol
∆S [1]: -2.3 cal/mol/deg
∆H ([1]; listed as SCAMP1’): n.b.
∆S ([1]; listed as SCAMP1’): n.b.
∆H ([1]; listed as SCAMP1’’): -41.3 ± 1.3 kcal/mol
∆S ([1]; listed as SCAMP1’’): -118.0 cal/mol/deg
N (stoichiometry) [1]: 0.38 ± 0.04
N (stoichiometry) ([1]; listed as SCAMP1’): n.b.
N (stoichiometry) ([1]; listed as SCAMP1’’): 0.33 ± 0.01
KD ([1]; listed as SCAMP1’): n.b.
KD ([1]; listed as SCAMP1’’): 9.9 ± 0.4 µM

Second part, led by results:

N (stoichiometry) [1]: 0.33 ± 0.01
Molecule: SCAMP1″: NPF repeat rich fragment of SCAMP1 possessing three NPF-motifs (residues 1–52) (MSDFDSNPFADPDLNNPFKDPSVTQVTRNVPPGLDEYNPFSDSRTPPPGGVK; UniProt O15126 1-52, looked up, fragment)
complex formation by SEC (elution) [2]: lower retention volume
enthalpic/entropic contribution to binding (in words) ([1]; SCAMP1″ (three NPF-motifs) compared to sum of / individual peptides A, B, C): no enthalpic gain; also recorded: largely reduced entropic penalty

Kd [3]: 250 µM
Kd [4]: 110 ± 10 µM
B1: peptide A, SCAMP1 derived peptide with a single NPF-repeat (peptide)
chain: SDFDSNPFADPDLNY-NH2

Kd [3]: 90 µM
Kd [4]: 30 ± 20 µM
B2: peptide C, SCAMP1 derived peptide with a single NPF-repeat (peptide)
chain: GLDEYNPFSDSRT-NH2

Kd [3]: 140 µM
Kd [4]: 120 ± 30 µM
B3: peptide B, SCAMP1 derived peptide with a single NPF-repeat (peptide)
chain: ADPDLNNPFKDPSVTY-NH2

N (stoichiometry) [1]: n.b.
KD [1]: n.b.
B4: SCAMP1′: coiled coil domain of N-terminal SCAMP1, devoid of NPF-repeats (residues 65–130) (protein, UniProt O15126 65-130, looked up, fragment)
chain: KPTEEHPAYTQIAKEHALAQAELLKRQEELERKAAELDRREREMQNLSQHGRKNNWPPLPSNFPVG

Kd [3]: 9.9 µM
binding result [5]: binds
B7: SCAMP1″, NPF repeat rich N-terminal fragment of secretory carrier membrane protein 1 (residues 1–52) (domain or fragment, human (hORFeome collection))
chain: SMMSDFDSNPFADPDLNNPFKDPSVTQVTRNVPPGLDEYNPFSDSRTPPPGGVK
notes: two additional residues (Serine-Methionine) left by the vector pNIC28-Bsa4 after TEV cleavage (same cloning procedure as for EHγ); secretory carrier membrane protein 1 (SCAMP1), residues 1-52, with three NPF repeats; gene from the hORFeome collection; also called SCAMP 1–52 fragment; NPF-repeats from the N-terminal domain of SCAMP1; source: E. coli BL21(DE3), purified (Ni-IMAC, TEV cleavage, …)
